B1: Receptor-type tyrosine-protein phosphatase R (Homo sapiens), Q15256 (parent)
chain: MRRAVCFPALCLLLNLHAAGCFSGNNDHFLAINQKKSGKPVFIYKHSQDIEKSLDIAPQKIYRHSYHSSSEAQVSKRHQIVNSAFPRPAYDPSLNLLAMDGQDLEVENLPIPAANVIVVTLQMDVNKLNITLLRIFRQGVAAALGLLPQQVHINRLIGKKNSIELFVSPINRKTGISDALPSEEVLRSLNINVLHQSLSQFGITEVSPEKNVLQGQHEADKIWSKEGFYAVVIFLSIFVIIVTCLMILYRLKERFQLSLRQDKEKNQEIHLSPITLQPALSEAKTVHSMVQPEQAPKVLNVVVDPQGRGAPEIKATTATSVCPSPFKMKPIGLQERRGSNVSLTLDMSSLGNIEPFVSIPTPREKVAMEYLQSASRILTRSQLRDVVASSHLLQSEFMEIPMNFVDPKEIDIPRHGTKNRYKTILPNPLSRVCLRPKNVTDSLSTYINANYIRGYSGKEKAFIATQGPMINTVDDFWQMVWQEDSPVIVMITKLKEKNEKCVLYWPEKRGIYGKVEVLVISVNECDNYTIRNLVLKQGSHTQHVKHYWYTSWPDHKTPDSAQPLLQLMLDVEEDRLASQGRGPVVVHCSAGIGRTGCFIATSIGCQQLKEEGVVDALSIVCQLRMDRGGMVQTSEQYEFVHHALCLYESRLSAETVQ
B2: Macrophage-stimulating protein receptor (Mus musculus), Q62190 (parent)
chain: MGLPLPLLQSSLLLMLLLRLSAASTNLNWQCPRIPYAASRDFSVKYVVPSFSAGGRVQATAAYEDSTNSAVFVATRNHLHVLGPDLQFIENLTTGPIGNPGCQTCASCGPGPHGPPKDTDTLVLVMEPGLPALVSCGSTLQGRCFLHELEPRGKALHLAAPACLFSANNNKPEACTDCVASPLGTRVTVVEQGHASYFYVASSLDPELAASFSPRSVSIRRLKSDTSGFQPGFPSLSVLPKYLASYLIKYVYSFHSGDFVYFLTVQPISVTSPPSALHTRLVRLNAVEPEIGDYRELVLDCHFAPKRRRRGAPEGTQPYPVLQAAHSAPVDAKLAVELSISEGQEVLFGVFVTVKDGGSGMGPNSVVCAFPIYHLNILIEEGVEYCCHSSNSSSLLSRGLDFFQTPSFCPNPPGGEASGPSSRCHYFPLMVHASFTRVDLFNGLLGSVKVTALHVTRLGNVTVAHMGTVDGRVLQVEIARSLNYLLYVSNFSLGSSGQPVHRDVSRLGNDLLFASGDQVFKVPIQGPGCRHFLTCWRCLRAQRFMGCGWCGDRCDRQKECPGSWQQDHCPPEISEFYPHSGPLRGTTRLTLCGSNFYLRPDDVVPEGTHQITVGQSPCRLLPKDSSSPRPGSLKEFIQELECELEPLVTQAVGTTNISLVITNMPAGKHFRVEGISVQEGFSFVEPVLTSIKPDFGPRAGGTYLTLEGQSLSVGTSRAVLVNGTQCRLEQVNEEQILCVTPPGAGTARVPLHLQIGGAEVPGSWTFHYKEDPIVLDISPKCGYSGSHIMIHGQHLTSAWHFTLSFHDGQSTVESRCAGQFVEQQQRRCRLPEYVVRNPQGWATGNLSVWGDGAAGFTLPGFRFLPPPSPLRAGLVELKPEEHSVKVEYVGLGAVADCVTVNMTVGGEVCQHELRGDVVICPLPPSLQLGKDGVPLQVCVDGGCHILSQVVRSSPGRASQRILLIALLVLILLVAVLAVALIFNSRRRKKQLGAHSLSPTTLSDINDTASGAPNHEESSESRDGTSVPLLRTESIRLQDLDRMLLAEVKDVLIPHEQVVIHTDQVIGKGHFGVVYHGEYTDGAQNQTHCAIKSLSRITEVQEVEAFLREGLLMRGLHHPNILALIGIMLPPEGLPRVLLPYMRHGDLLHFIRSPQRNPTVKDLVSFGLQVACGMEYLAEQKFVHRDLAARNCMLDESFTVKVADFGLARGVLDKEYYSVRQHRHARLPVKWMALESLQTYRFTTKSDVWSFGVLLWELLTRGAPPYPHIDPFDLSHFLAQGRRLPQPEYCPDSLYHVMLRCWEADPAARPTFRALVLEVKQVVASLLGDHYVQLTAAYVNVGPRAVDDGSVPPEQVQPSPQHCRSTSKPRPLSEPPLPT
partner: B1 chain
B3: Receptor tyrosine-protein kinase erbB-4 (Homo sapiens), Q15303 (parent)
chain: MKPATGLWVWVSLLVAAGTVQPSDSQSVCAGTENKLSSLSDLEQQYRALRKYYENCEVVMGNLEITSIEHNRDLSFLRSVREVTGYVLVALNQFRYLPLENLRIIRGTKLYEDRYALAIFLNYRKDGNFGLQELGLKNLTEILNGGVYVDQNKFLCYADTIHWQDIVRNPWPSNLTLVSTNGSSGCGRCHKSCTGRCWGPTENHCQTLTRTVCAEQCDGRCYGPYVSDCCHRECAGGCSGPKDTDCFACMNFNDSGACVTQCPQTFVYNPTTFQLEHNFNAKYTYGAFCVKKCPHNFVVDSSSCVRACPSSKMEVEENGIKMCKPCTDICPKACDGIGTGSLMSAQTVDSSNIDKFINCTKINGNLIFLVTGIHGDPYNAIEAIDPEKLNVFRTVREITGFLNIQSWPPNMTDFSVFSNLVTIGGRVLYSGLSLLILKQQGITSLQFQSLKEISAGNIYITDNSNLCYYHTINWTTLFSTINQRIVIRDNRKAENCTAEGMVCNHLCSSDGCWGPGPDQCLSCRRFSRGRICIESCNLYDGEFREFENGSICVECDPQCEKMEDGLLTCHGPGPDNCTKCSHFKDGPNCVEKCPDGLQGANSFIFKYADPDRECHPCHPNCTQGCNGPTSHDCIYYPWTGHSTLPQHARTPLIAAGVIGGLFILVIVGLTFAVYVRRKSIKKKRALRRFLETELVEPLTPSGTAPNQAQLRILKETELKRVKVLGSGAFGTVYKGIWVPEGETVKIPVAIKILNETTGPKANVEFMDEALIMASMDHPHLVRLLGVCLSPTIQLVTQLMPHGCLLEYVHEHKDNIGSQLLLNWCVQIAKGMMYLEERRLVHRDLAARNVLVKSPNHVKITDFGLARLLEGDEKEYNADGGKMPIKWMALECIHYRKFTHQSDVWSYGVTIWELMTFGGKPYDGIPTREIPDLLEKGERLPQPPICTIDVYMVMVKCWMIDADSRPKFKELAAEFSRMARDPQRYLVIQGDDRMKLPSPNDSKFFQNLLDEEDLEDMMDAEEYLVPQAFNIPPPIYTSRARIDSNRSEIGHSPPPAYTPMSGNQFVYRDGGFAAEQGVSVPYRAPTSTIPEAPVAQGATAEIFDDSCCNGTLRKPVAPHVQEDSSTQRYSADPTVFAPERSPRGELDEEGYMTPMRDKPKQEYLNPVEENPFVSRRKNGDLQALDNPEYHNASNGPPKAEDEYVNEPLYLNTFANTLGKAEYLKNNILSMPEKAKKAFDNPDYWNHSLPPRSTLQHPDYLQEYSTKYFYKQNGRIRPIVAENPEYLSEFSLKPGTVLPPPPYRHRNTVV
partner: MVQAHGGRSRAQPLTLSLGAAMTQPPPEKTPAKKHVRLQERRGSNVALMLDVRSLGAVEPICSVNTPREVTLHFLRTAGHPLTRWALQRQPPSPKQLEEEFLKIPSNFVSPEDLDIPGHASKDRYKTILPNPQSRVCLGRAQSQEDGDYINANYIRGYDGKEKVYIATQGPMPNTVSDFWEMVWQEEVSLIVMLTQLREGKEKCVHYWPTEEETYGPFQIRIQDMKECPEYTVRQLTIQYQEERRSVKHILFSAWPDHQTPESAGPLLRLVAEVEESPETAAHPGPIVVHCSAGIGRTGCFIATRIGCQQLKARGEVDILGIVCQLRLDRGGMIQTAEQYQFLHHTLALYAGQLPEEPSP
B4: Tyrosine-protein phosphatase non-receptor type 12 (Homo sapiens), Q05209 (parent)
chain: MEQVEILRKFIQRVQAMKSPDHNGEDNFARDFMRLRRLSTKYRTEKIYPTATGEKEENVKKNRYKDILPFDHSRVKLTLKTPSQDSDYINANFIKGVYGPKAYVATQGPLANTVIDFWRMIWEYNVVIIVMACREFEMGRKKCERYWPLYGEDPITFAPFKISCEDEQARTDYFIRTLLLEFQNESRRLYQFHYVNWPDHDVPSSFDSILDMISLMRKYQEHEDVPICIHCSAGCGRTGAICAIDYTWNLLKAGKIPEEFNVFNLIQEMRTQRHSAVQTKEQYELVHRAIAQLFEKQLQLYEIHGAQKIADGVNEINTENMVSSIEPEKQDSPPPKPPRTRSCLVEGDAKEEILQPPEPHPVPPILTPSPPSAFPTVTTVWQDNDRYHPKPVLHMVSSEQHSADLNRNYSKSTELPGKNESTIEQIDKKLERNLSFEIKKVPLQEGPKSFDGNTLLNRGHAIKIKSASPCIADKISKPQELSSDLNVGDTSQNSCVDCSVTQSNKVSVTPPEESQNSDTPPRPDRLPLDEKGHVTWSFHGPENAIPIPDLSEGNSSDINYQTRKTVSLTPSPTTQVETPDLVDHDNTSPLFRTPLSFTNPLHSDDSDSDERNSDGAVTQNKTNISTASATVSAATSTESISTRKVLPMSIARHNIAGTTHSGAEKDVDVSEDSPPPLPERTPESFVLASEHNTPVRSEWSELQSQERSEQKKSEGLITSENEKCDHPAGGIHYEMCIECPPTFSDKREQISENPTEATDIGFGNRCGKPKGPRDPPSEWT

Variants of: B1
Conditions: with erbb4_human ERBB4, Q15303

Variant | effect of a mutation on the interaction
D554A;C588S | with no effect

Variants of: B1
Conditions: with ret_human RET

Variant | effect of a mutation on the interaction
D554A;C588S | with no effect

Variants of: B1
Conditions: with igf1r_human IGF1R
Target sequence in this assay (P08069 whole entry, looked up): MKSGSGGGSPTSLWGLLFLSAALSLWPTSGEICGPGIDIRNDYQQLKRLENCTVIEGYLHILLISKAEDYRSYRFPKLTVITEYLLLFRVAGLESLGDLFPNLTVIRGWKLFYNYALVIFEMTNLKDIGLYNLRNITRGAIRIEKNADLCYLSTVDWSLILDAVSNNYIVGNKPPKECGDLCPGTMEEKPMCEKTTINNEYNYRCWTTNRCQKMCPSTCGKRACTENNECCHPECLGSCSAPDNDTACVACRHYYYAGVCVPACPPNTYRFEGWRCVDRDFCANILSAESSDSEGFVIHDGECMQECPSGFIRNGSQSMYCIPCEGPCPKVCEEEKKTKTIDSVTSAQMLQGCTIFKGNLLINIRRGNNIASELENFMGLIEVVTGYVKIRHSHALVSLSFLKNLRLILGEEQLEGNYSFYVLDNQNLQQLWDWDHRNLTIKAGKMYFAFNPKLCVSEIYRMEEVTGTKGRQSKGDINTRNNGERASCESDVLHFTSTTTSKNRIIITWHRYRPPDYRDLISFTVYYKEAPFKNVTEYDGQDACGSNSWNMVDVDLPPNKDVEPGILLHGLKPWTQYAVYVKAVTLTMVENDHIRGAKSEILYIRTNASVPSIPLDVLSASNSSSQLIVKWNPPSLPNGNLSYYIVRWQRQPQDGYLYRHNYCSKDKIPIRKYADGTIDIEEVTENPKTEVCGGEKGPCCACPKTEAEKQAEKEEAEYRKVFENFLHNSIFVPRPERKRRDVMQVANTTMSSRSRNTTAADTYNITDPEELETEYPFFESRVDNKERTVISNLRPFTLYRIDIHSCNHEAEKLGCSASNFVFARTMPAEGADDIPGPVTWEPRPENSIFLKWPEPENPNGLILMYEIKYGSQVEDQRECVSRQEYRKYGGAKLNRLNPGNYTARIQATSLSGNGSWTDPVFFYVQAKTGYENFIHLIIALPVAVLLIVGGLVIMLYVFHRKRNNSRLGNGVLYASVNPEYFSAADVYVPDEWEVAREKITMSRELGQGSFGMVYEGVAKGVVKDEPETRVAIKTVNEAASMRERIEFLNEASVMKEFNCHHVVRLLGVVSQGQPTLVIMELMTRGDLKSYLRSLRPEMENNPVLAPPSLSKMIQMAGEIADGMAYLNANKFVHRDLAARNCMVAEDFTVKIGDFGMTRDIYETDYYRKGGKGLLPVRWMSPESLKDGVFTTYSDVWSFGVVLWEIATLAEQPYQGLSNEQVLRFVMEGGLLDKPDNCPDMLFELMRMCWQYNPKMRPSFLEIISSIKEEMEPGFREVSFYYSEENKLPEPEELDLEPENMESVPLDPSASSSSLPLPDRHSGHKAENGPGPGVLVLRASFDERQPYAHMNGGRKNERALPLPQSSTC

Variant | effect of a mutation on the interaction
D554A;C588S | decreasing interaction

Variants of: B1
Conditions: with ret_human RET
Remark: another data set of the same source

Variant | effect of a mutation on the interaction
D554A;C588S | disrupting interaction

Variants of: B1
Conditions: with ron_mouse Mst1r, Q62190

Variant | effect of a mutation on the interaction
D554A;C588S | disrupting interaction

Variants of: B1
Conditions: with ntrk1_human NTRK1, P04629

Variant | effect of a mutation on the interaction
D554A;C588S | with no effect

Variants of: B1
Conditions: with tie2_human TEK

Variant | effect of a mutation on the interaction
D554A;C588S | decreasing interaction

Variants of: B1
Conditions: with ron_mouse Mst1r

Variant | effect of a mutation on the interaction
D554A;C588S | increasing interaction

Variants of: B1
Conditions: with fgfr2_human FGFR2, P21802
Target sequence in this assay (P21802 whole entry, looked up): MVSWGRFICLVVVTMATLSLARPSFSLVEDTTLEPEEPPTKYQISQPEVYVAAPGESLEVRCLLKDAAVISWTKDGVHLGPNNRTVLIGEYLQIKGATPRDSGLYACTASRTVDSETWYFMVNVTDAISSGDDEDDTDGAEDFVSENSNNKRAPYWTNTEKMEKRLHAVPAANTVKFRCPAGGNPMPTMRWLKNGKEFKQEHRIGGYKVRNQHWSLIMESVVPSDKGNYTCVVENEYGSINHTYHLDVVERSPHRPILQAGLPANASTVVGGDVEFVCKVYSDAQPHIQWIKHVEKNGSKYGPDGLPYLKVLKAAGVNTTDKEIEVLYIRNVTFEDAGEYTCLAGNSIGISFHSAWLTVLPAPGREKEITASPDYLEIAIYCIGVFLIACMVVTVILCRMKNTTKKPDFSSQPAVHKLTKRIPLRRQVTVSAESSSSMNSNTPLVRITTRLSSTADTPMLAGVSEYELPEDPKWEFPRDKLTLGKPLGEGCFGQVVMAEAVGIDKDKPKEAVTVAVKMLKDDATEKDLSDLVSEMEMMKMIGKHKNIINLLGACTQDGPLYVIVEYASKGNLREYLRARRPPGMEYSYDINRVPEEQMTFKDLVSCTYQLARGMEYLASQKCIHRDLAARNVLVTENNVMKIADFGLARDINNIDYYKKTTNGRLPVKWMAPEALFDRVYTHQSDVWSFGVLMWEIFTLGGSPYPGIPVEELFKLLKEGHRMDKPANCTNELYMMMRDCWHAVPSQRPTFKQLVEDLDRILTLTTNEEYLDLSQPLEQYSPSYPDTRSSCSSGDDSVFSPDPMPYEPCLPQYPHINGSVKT

Variant | effect of a mutation on the interaction
D554A;C588S | decreasing interaction

Variants of: B1
Conditions: with fgfr4_human FGFR4, P22455
Target sequence in this assay (P22455 whole entry, looked up): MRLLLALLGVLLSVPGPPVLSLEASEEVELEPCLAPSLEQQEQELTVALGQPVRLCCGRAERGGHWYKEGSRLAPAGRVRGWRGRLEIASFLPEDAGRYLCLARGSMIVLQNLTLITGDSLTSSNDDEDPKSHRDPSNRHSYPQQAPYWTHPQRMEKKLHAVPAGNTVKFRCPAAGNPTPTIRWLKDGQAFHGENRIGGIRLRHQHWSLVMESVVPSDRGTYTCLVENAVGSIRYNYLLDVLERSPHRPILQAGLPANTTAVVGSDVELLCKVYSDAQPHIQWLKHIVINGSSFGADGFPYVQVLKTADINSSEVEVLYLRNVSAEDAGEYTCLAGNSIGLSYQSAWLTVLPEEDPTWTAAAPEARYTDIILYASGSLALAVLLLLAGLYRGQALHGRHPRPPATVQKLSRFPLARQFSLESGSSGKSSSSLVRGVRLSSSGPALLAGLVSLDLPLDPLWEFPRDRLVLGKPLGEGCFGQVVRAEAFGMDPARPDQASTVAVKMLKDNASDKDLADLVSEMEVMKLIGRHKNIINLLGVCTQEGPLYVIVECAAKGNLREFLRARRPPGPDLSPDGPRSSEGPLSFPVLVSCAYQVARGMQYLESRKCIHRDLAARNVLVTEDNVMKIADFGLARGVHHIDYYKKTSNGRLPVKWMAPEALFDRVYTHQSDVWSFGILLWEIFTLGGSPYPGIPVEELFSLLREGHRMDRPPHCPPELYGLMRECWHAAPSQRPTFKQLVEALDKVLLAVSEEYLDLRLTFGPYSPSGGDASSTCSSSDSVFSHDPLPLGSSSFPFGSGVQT

Variant | effect of a mutation on the interaction
D554A;C588S | decreasing interaction

Variants of: B1
Conditions: with vgfr2_human KDR
Target sequence in this assay (P35968 whole entry): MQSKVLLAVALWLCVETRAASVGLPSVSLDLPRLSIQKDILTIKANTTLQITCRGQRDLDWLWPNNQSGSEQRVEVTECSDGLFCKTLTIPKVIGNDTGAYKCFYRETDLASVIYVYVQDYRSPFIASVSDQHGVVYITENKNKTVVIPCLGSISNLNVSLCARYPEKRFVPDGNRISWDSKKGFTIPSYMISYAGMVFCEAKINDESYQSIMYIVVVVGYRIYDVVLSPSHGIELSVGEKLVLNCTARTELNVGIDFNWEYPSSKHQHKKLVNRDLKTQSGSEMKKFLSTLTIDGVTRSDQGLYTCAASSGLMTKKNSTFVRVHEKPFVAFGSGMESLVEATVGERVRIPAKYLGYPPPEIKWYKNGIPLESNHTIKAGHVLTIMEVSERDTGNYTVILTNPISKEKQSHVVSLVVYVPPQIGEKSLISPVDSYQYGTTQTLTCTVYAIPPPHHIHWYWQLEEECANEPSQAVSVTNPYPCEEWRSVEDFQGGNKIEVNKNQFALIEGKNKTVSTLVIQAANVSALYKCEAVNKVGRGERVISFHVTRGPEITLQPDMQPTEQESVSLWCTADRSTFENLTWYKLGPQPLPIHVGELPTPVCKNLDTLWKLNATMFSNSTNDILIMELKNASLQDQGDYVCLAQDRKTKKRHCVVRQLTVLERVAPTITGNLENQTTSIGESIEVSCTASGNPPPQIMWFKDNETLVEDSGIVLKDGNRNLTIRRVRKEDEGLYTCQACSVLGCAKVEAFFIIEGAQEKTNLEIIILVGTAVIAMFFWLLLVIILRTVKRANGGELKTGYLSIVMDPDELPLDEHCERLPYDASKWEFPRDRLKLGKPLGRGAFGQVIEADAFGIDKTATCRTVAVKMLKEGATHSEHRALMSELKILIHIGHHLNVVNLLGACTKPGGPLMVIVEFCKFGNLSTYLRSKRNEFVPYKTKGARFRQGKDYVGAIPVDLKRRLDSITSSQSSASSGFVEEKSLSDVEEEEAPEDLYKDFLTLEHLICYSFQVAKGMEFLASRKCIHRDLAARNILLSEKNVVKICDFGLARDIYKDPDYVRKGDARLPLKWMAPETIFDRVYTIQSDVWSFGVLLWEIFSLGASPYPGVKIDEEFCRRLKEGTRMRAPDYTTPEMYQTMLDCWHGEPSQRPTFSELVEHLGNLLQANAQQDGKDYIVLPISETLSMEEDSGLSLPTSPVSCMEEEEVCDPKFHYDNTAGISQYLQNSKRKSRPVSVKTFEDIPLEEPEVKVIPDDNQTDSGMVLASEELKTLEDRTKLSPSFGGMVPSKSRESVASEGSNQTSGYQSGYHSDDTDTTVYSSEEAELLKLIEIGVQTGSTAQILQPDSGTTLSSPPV

Variant | effect of a mutation on the interaction
D554A;C588S | with no effect

Variants of: B1
Conditions: with igf1r_human IGF1R
Remark: another data set of the same source
Target sequence in this assay (P08069 whole entry, looked up): as the sequence (P08069 whole entry, looked up) above

Variant | effect of a mutation on the interaction
D554A;C588S | with no effect

Variants of: B2
Conditions: with ptprr_human PTPRR, Q15256

Variant | effect of a mutation on the interaction
K1091A | decreasing interaction

Variants of: B3
Conditions: with ptn7_human PTPN7, P35236

Variant | effect of a mutation on the interaction
D843N | increasing interaction

Variants of: B4
Conditions: with igf1r_human IGF1R
Target sequence in this assay (P08069 whole entry, looked up): as above

Variant | effect of a mutation on the interaction
C235S | decreasing interaction
D201A;C235S | with no effect

Variants of: B4
Conditions: with erbb4_human ERBB4, Q15303

Variant | effect of a mutation on the interaction
C231S | with no effect
D199A;C231S | disrupting interaction

Variants of: B4
Conditions: with erbb4_human ERBB4, Q15303
Remark: another data set of the same source

Variant | effect of a mutation on the interaction
C231S | disrupting interaction

Variants of: B4
Conditions: with fgfr2_human FGFR2, P21802
Target sequence in this assay (P21802 whole entry, looked up): as the sequence (P21802 whole entry, looked up) above

Variant | effect of a mutation on the interaction
C231S | disrupting interaction
D199A;C231S | disrupting interaction

Variants of: B4
Conditions: with fgfr4_human FGFR4, P22455
Target sequence in this assay (P22455 whole entry, looked up): as the sequence (P22455 whole entry, looked up) above

Variant | effect of a mutation on the interaction
C231S | increasing interaction

Variants of: B4
Conditions: with vgfr2_human KDR
Target sequence in this assay (P35968 whole entry): as the sequence (P35968 whole entry) above

Variant | effect of a mutation on the interaction
C231S | with no effect
D199A;C231S | with no effect

Variants of: B4
Conditions: with igf1r_human IGF1R
Remark: another data set of the same source
Target sequence in this assay (P08069 whole entry, looked up): as the sequence (P08069 whole entry, looked up) above

Variant | effect of a mutation on the interaction
C231S | increasing interaction
D199A;C231S | disrupting interaction

From IntAct's records for PubMed 28065597
